B1: GFP-Rng2CHD CHD (protein)
chain: MDVNVGLSRLQSQAGAPVGTKGSNTRLAAKQRETLQAYDYLCRVDEAKKWIEECLGTDLGPTSTFEQSLRNGVVLALLVQKFQPDKLIKIFYSNELQFRHSDNINKFLDFIHGIGLPEIFHFELTDIYEGKNLPKVIYCIHALSYFLSMQDLAPPLIKSDENLSFTDEDVSIIVRRLRQSNVILPNFKA
modifications: GFP fused to Rng2CHD N-terminus, phalloidin-stabilized actin filaments
B2: Rng2CHD CHD (protein)
chain: B1 chain
modifications: phalloidin-stabilized actin filaments

Target: actin filament (skeletal muscle alpha-actin) (Oryctolagus cuniculus, UniProt P68135)
Experiment: co-sedimentation

| Binder | Kd [nM] |
| --- | --- |
| B1 | 3400 |
| B2 | 920 |

Source: paper PMC9610768 (2022)
